Target: the molecule itself
Experiment: cryo-EM structure; single particle cryo-EM of MscS in MSP1 E3D1 nanodiscs, POPC:POPG 4:1; 0.01% fluorinated octyl maltoside added; C7 symmetry in final refinement (the His-tagged sample also processed without symmetry, C1)

B1: E. coli small-conductance mechanosensitive channel MscS with N-terminal 6xHis tag (natural protein, UniProt P0C0S1 1-286, looked up)
chain: MEDLNVVDSINGAGSWLVANQALLLSYAVNIVAALAIIIVGLIIARMISNAVNRLMISRKIDATVADFLSALVRYGIIAFTLIAALGRVGVQTASVIAVLGAAGLAVGLALQGSLSNLAAGVLLVMFRPFRAGEYVDLGGVAGTVLSVQIFSTTMRTADGKIIVIPNGKIIAGNIINFSREPVRRNEFIIGVAYDSDIDQVKQILTNIIQSEDRILKDREMTVRLNELGASSINFVVRVWSNSGDLQNVYWDVLERIKREFDAAGISFPYPQMDVNFKRVKEDKAA
notes: Small-conductance mechanosensitive channel MscS, E. coli, full length; also called 6xHis-MscS-ND; MscS-ND; not shown: His6, N-terminal, kept
- stoichiometry N: 7

B2: MscS-Cryst (Δ2–26 MscS) (natural protein, E. coli, UniProt P0C0S1 1-286, looked up)
chain: MYAVNIVAALAIIIVGLIIARMISNAVNRLMISRKIDATVADFLSALVRYGIIAFTLIAALGRVGVQTASVIAVLGAAGLAVGLALQGSLSNLAAGVLLVMFRPFRAGEYVDLGGVAGTVLSVQIFSTTMRTADGKIIVIPNGKIIAGNIINFSREPVRRNEFIIGVAYDSDIDQVKQILTNIIQSEDRILKDREMTVRLNELGASSINFVVRVWSNSGDLQNVYWDVLERIKREFDAAGISFPYPQMDVNFKRVKEDKAA
notes: Small-conductance mechanosensitive channel MscS, E. coli, lacking the N-terminal anchor domain (residues 2-26 removed); The tag is surmised from the vector and from the statement that the purification was the same; also called MscS ∆2–27; MscS ∆1–27; source: E. coli MJF465 (pQE70), purified as the wild type, reconstituted in MSP1 E3D1 nanodiscs (POPC:POPG)
- binding result: binds

Source: publication PMC7299334, “Molecular basis of force-from-lipids gating in the mechanosensitive channel MscS” (eLife, 2019)
